Experimental data as given in US20220133794A1 (Stanford University, published 2022).
Where a chain is given by its changes, count along the chain named.

B1: mouse monoclonal anti-human CD93 antibody F11 (hybridoma clone F11) (antibody, V domains shown)
VH: EVQLQQSGPELVKPGASVKIPCKASGYTFTDYHMDWVKQSHGKSLEWIGDIDPYNGDTVFNQKFKGKATLTVDKSSSTAYMELRSLTSEDTAVYYCTRGGDYWGQGTTLTVSS
VL: DVVMTQTPLSLPVSLGDQASISCRSSQTLVHSNGNTYLHWYLQKPGQSPKLLIYKVSNRFSGVPDRFSGSGSGTDFTLKISRVEAEDLGVYFCSQSTHVPFTFGSGTKLEIK
notes: Mouse hybridoma antibody tested as supernatant; also called mouse F11; parental antibody
B2: humanized F11-G1 (Hu F11-G1) (antibody, V domains shown)
VH: QVQLVQSGAEVKKPGASVKVSCKASGYTFTDYHMDWVKQAPGQGLEWIGDIDPYNGDTVFNQKFKGKATMTRDTSISTAYMELSRLRSDDTAVYYCTRGGDYWGQGTLVTVSS
VL: B1 VL with V2I, P12S, S14T, L15P, D17Q, Q18P, S48P, K50Q, L88V, S105Q
notes: The light chain was detected with anti-human kappa; also called humanized mCD93 antibody (F11); humanized anti-CD93 antibody

Legend:
human CD93 [1] = biological target: T1, human CD93 (human, UniProt Q9NPY3 22-652); experiment: hybridoma supernatant screen by ELISA and flow cytometry
T1 construct: whole, on cells; Endogenous CD93 on AML cell lines
T1 sequence (looked up): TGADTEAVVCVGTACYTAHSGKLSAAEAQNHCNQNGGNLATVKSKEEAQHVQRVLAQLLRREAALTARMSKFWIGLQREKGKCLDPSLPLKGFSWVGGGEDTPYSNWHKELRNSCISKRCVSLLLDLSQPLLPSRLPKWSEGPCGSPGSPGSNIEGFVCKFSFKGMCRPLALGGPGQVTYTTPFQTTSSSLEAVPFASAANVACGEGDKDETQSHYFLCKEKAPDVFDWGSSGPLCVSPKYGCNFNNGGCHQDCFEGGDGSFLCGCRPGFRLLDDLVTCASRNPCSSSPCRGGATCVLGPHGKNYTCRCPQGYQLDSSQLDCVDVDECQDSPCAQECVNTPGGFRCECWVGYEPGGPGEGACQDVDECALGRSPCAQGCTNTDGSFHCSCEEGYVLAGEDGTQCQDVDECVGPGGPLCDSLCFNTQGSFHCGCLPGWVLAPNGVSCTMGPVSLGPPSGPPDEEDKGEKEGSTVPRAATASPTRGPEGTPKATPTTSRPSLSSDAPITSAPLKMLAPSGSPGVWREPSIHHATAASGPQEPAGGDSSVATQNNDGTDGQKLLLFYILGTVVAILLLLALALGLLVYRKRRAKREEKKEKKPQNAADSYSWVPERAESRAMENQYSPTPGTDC

human CD93 [2] = biological target: T1, human CD93; experiment: flow cytometry on AML cell lines, biotinylated antibody and streptavidin APC
Experimental: FIG. 8. CD93-specific CAR T cells produce cytokines when incubated with CD93 positive AML cell lines. A. AML cell lines were first treated with Fc block, then were stained with biotinylated HuF11 antibody followed by streptavidin APC, or with streptavidin APC only as a control. CD93 was highly expressed on many AML cell lines including THP-1, Kasumi, MOLM-13, NOMO-1, and OCI-AML3, and was not expressed on HEL-2. B. 1×10⁵ AML cells were incubated with 1×10⁵ mock, F11 28ζ LH, F11 28ζ H-L, F11 BBζ L-H, or F11 BBζ H-L CAR T cells for 24 h. At 24 h, supernatant was harvested and ELISA was performed for IFNγ and IL-2. Results are representative of at least three independent experiments.

| Binder | binding result (human CD93 [1]) | binding result (human CD93 [2]) |
| --- | --- | --- |
| B1 | binds | – |
| B2 | – | binds |
